Test results from article PMC7160669 (Biochemistry, 2019).
Where a chain is given by its changes, count along the chain named.

B1: CpfC (protein)
chain: MTKKMGLLVMAYGTPYKESDIEPYYTDIRHGKRPSEEELQDLKDRYEFIGGLSPLAGTTDDQADALVSALNKAYADVEFKLYLGLKHISPFIEDAVEQMHNDGITEAITVVLAPHYSSFSVGSYDKRADEEAAKYGIQLTHVKHYYEQPKFIEYWTNKVNETLAQIPEEEHKDTVLVVSAHSLPKGLIEKNNDPYPQELEHTALLIKEQSNIEHIAIGWQSEGNTGTPWLGPDVQDLTRDLYEKHQYKNFIYTPVGFVCEHLEVLYDNDYECKVVCDDIGANYYRPKMPNTHPLFIGAIIDEIKSIF
modifications: coproporphyrin III bound to CpfC
B2: CpfC (protein)
chain: B1 chain
B3: ChdC (protein)
chain: MSQAAETLDGWYSLHLFYAVDWASLRIVPKDERDALVTEFQSFLENTATVRSSKSGDQAIYNITGQKADLLLWFLRPEMKSLNHIENEFNKLRIADFLIPTYSYVSVIELSNYLAGKSDEDPYENPHIKARLYPELPHSDYICFYPMNKRRNETYNWYMLTMEERQKLMYDHGMIGRKYAGKIKQFITGSVGFDDFEWGVTLFSDDVLQFKKIVYEMRFDETTARYGEFGSFFVGHIINTNEFDQFFAIS
modifications: coproporphyrin III bound to ChdC

Columns and labels:
[1] = molecular target: T1, CpfC (coproporphyrin ferrochelatase; HemH) (Staphylococcus aureus, UniProt P64125); test: tryptophan fluorescence quenching; format: binding; settings: 50 mM Tris pH 8, 150 mM NaCl, 25 °C
T1 sequence (P64125 1-307): B1 chain with I300V

[2] = molecular target: T2, ChdC (SaChdC; coproheme decarboxylase) (Staphylococcus aureus, UniProt A6QEP0); test: tryptophan fluorescence quenching; format: binding; settings: 50 mM Tris pH 8, 150 mM NaCl, 25 °C; Langmuir-Hill fit
T2 sequence (A6QEP0 1-250): B3 chain

ChdC [3] = molecular target: T3, ChdC (Staphylococcus aureus, UniProt Q2FJ56); test: UV-vis titration
T3 chain: B3 chain

ChdC [4] = molecular target: T3, ChdC; test: UV-vis titration and fluorescence quenching
CpfC = molecular target: B2; test: UV-vis titration

**Q.** `CC1=C(CCC(=O)O)c2cc3nc(cc4[nH]c(cc5[nH]c(cc1n2)c(C)c5CCC(=O)O)c(CCC(=O)O)c4C)C(CCC(=O)O)=C3C` [coproporphyrin] was tested. Which KD [1] did it give?
**A.** The KD was “affinities of CpfC and/or ChdC for coproporphyrin and/or coproheme were measured titrimetrically”.

**Q.** What about the KD [2] of the same molecule?
**A.** Its KD is “ChdC binds coproporphyrin with an affinity that resembles that for coproheme”.

**Q.** Which Kd (ChdC [3]) does the source give for B1 here?
**A.** The Kd was 80 µM.

**Q.** Which Kd (ChdC [4]) does the source give for B2 here?
**A.** Its Kd is 17 µM.

**Q.** How did the Kd (CpfC) turn out when B3 was run?
**A.** The Kd was 40 µM.
